According to patent US20020123091A1:
pKi: −log10 of the molar value.

Assays:
[1] = target: human kallikrein (Haematologic Technologies) (human) (UniProt P03952); assay: cell-based or functional assay
[2] = target: human kallikrein (Haematologic Technologies) (human) (UniProt P03952); assay: apparent Ki (K1*) calculated from the IC50 as K1*=IC50/(1+(S/KM)), assuming competitive inhibition; chromogenic substrate S2305 1.8 mM, kallikrein 1.25 nM

Chain of human kallikrein (Haematologic Technologies) (human) (P03952 20-638 limits assumed): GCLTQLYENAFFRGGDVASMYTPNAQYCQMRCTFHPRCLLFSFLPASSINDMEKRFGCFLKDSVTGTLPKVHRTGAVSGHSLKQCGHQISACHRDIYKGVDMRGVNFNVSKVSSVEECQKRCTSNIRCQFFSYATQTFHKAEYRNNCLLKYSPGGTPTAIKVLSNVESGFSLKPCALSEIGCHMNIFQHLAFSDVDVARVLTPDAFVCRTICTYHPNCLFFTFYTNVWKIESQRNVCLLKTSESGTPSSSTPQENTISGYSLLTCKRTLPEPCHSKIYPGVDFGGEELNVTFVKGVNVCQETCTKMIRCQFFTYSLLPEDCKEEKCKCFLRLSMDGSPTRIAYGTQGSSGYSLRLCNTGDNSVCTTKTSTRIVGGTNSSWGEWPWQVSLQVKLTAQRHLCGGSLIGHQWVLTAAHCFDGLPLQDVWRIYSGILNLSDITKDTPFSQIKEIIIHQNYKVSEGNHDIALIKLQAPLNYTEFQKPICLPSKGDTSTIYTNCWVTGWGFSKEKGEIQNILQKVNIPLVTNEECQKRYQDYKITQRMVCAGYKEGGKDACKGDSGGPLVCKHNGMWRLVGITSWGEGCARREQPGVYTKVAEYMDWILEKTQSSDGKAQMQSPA

## PRO256 polypeptide (from UniProt O43278 36-465)
[1]
  inhibition of kallikrein enzymatic activity toward chromogenic substrate S2305 (IC50): 104 nM
[2]
  pKi: 7.43
